Data reported in PMC3728621, “Structural analysis of autoinhibition in the Ras-specific exchange factor RasGRP1” (eLife, 2013).

Experiments:
[1] = biological target: the molecule itself; experiment: crystal structure; RasGRP1^CEC at 3.0 Å; hanging drop, 0.15 M sodium citrate tribasic, 22% PEG 3350, 1 mM MnCl2, 20°C; dimer generated by a crystallographic twofold axis
[2] = biological target: the molecule itself; experiment: multiangle light scattering; RasGRP1^CC in solution, 30 μM to 1.5 mM monomer; data not shown

B1: RasGRP1^CEC (human Ras guanine nucleotide releasing protein 1, residues 50-607: REM, Cdc25, EF and C1 domains) (domain or fragment, UniProt O95267 50-607, looked up)
chain: MVSLGHLAKGASLDDLIDSCIQSFDADGNLCRSNQLLQVMLTMHRIVISSAELLQKVITLYKDALAKNSPGLCLKICYFVRYWITEFWVMFKMDASLTDTMEEFQELVKAKGEELHCRLIDTTQINARDWSRKLTQRIKSNTSKKRKVSLLFDHLEPEELSEHLTYLEFKSFRRISFSDYQNYLVNSCVKENPTMERSIALCNGISQWVQLMVLSRPTPQLRAEVFIKFIQVAQKLHQLQNFNTLMAVIGGLCHSSISRLKETSSHVPHEINKVLGEMTELLSSSRNYDNYRRAYGECTDFKIPILGVHLKDLISLYEAMPDYLEDGKVNVHKLLALYNHISELVQLQEVAPPLEANKDLVHLLTLSLDLYYTEDEIYELSYAREPRNHRAPPLTPSKPPVVVDWASGVSPKPDPKTISKHVQRMVDSVFKNYDHDQDGYISQEEFEKIAASFPFSFCVMDKDREGLISRDEITAYFMRASSIYSKLGLGFPHNFQETTYLKPTFCDNCAGFLWGVIKQGYRCKDCGMNCHKQCKDLVVFECKKRAKNPVAPTENNTS
notes: human RasGRP1 (full length 797 residues), residues 50-607, spanning the REM, Cdc25, EF and C1 domains; Crystallographic dimer; In gel filtration it forms dimers and higher order oligomers, depending on concentration; The structural model spans residues 53-593; 186-192 and 437-448 are not modelled; source: E. coli BL21(DE3), purified (HisTrap, tag removal with ULP1, second HisTrap, Superdex gel …)
B1: binds [1].

B2: RasGRP1^CC (human RasGRP1 C-terminal coiled coil, residues 739-793) (domain or fragment, UniProt O95267 739-793, looked up)
chain: ELRHLRLPTYQELEQEINTLKADNDALKIQLKYAQKKIESLQLEKSNHVLAQMEQ
notes: human RasGRP1 (full length 797 residues), residues 739-793, containing the predicted coiled coil (747-789); Parallel dimeric coiled coil; The model holds residues 745-793 (molecule A) and 745-786 (molecule B); also called C-terminal oligomerization domain; source: E. coli BL21(DE3), purified (HisTrap, tag removal with ULP1, second HisTrap, Superdex gel filtration); not shown: His6, N-terminal, …
In the case of B2, the “stoichiometry N” value [2] is reported as 2.
